Assay results: US9688764B2, “Methods of treating breast cancer by administering anti-human prolactin receptor (PRLR) antibodies” (REGENERON PHARMACEUTICALS, INC., priority 2013, dated 2017)

Assays:
[1] = system: SK-BR-3 cells; test: Cell viability (cell kill) assay; assay type: cell-based; details: Table 16
[2] = system: T47D#11 tumors; test: Tumor growth inhibition in xenograft-bearing mice; assay type: in vivo, CB17 SCID mice; details: multi-dose, 5 and 15 mg/kg
Description: Briefly, 20×10^6 MCF7/PRLR cells (ATCC HTB-22 transfected with full length hPRLR as previously described) were implanted subcutaneously into the left mammary fat pad of female NCr nude mice. In other studies, 10×10^6 PC3/PRLR (ATCC CRL-1435 transfected with full length hPRLR as previously described) were implanted subcutaneously into the left flank of male SCID mice. Additionally, 10×10^6 parental T47D (ATCC HTB-133) or […] T47D#11 cells (ATCC HTB-133 serially passaged in vivo as described below) were subcutaneously implanted into the left flank of female CB17 SCID mice. All mice were obtained from Taconic (Hudson, N.Y.). Each bolus of cells was supplemented with a 90-day estrogen release pellet (1.7 mg/pellet; Innovative Research America, Sarasota Fla.). Once tumors had reached an average volume of 250 mm^3, mice were randomized into groups of seven and dosed with anti-PRLR antibody-drug conjugates of the invention or control reagents. Control reagents included PBS vehicle, free methyl-disulfide DM1 (DM1-SMe) and isotype Control 1-DM1.
In multi-dose studies, mice were dosed once a week for a total of three weeks with tumor volumes and body weights being monitored twice weekly throughout the study. Test ADCs were dosed at 5 and/or 15 mg/kg in the multi-dose studies. In single-dose studies, mice received a single dose of test ADC, and tumor volumes and body weights were monitored twice weekly throughout the study. Test ADCs were dosed at 1, 2.5, 5, and 15 mg/kg in the single-dose studies. Average tumor size as well as tumor growth inhibition relative to the vehicle treated group were calculated for each group. Tumors were measured with calipers twice a week until the average size of the vehicle group reached 1000 mm^3. Tumor size was calculated using the formula (length×width^2)/2. Tumor growth inhibition was calculated according to the following formula: (1−((Tfinal−Tinitial)/(Cfinal−Cinitial)))*100, where T (treated group) and C (control group) represent the mean tumor mass on the day the vehicle group reached 1000 mm^3. […] Results are summarized in Tables 21-25 (multi-dose) and Table 26 (single dose). (NT=not tested in the particular experiment shown).

B1: H1H6953N-DM1 (conjugate)
VH: EVQLLESGGGLVQPGGTLRLSCAASGFTFSAYAMSWVRQAPGKGLEWVSSINVRAGDTYYADSVKGRFTISRDNSKNTLFLLMNSLRAEDTAAYYCAKARYSSNWGFDFWGQGTLVTVSS
VL: DIVMTQSPDSLTVSLGARTTINCQSSQTILHSSNNHNYLAWYQQKPGLPPKLLIYWSSTRESGVPDRFSGSGSGTDFTLTISSLQAEDVAIYYCQQYSNTPYTFGQGTKLEIN
- IC50 [1]: 100 nM

B2: H1H6958N2-DM1: anti-PRLR antibody H1H6958N2 conjugated to DM1 through an SMCC linker (conjugate)
VH: QVQLVESGGGVVQPGRSLRLSCGASGFTFRNYGMQWVRQGPGKGLEWVTLISFDGNDKYYADSVKGRFTISRDNSKNTLFLQMNSLRTEDTAVYYCARGGDFDYWGQGTLVTVSS
VL: DIQMTQSPSSLSASVGDRVTITCRASQDIRKDLGWYQQKPGKAPKRLIYAASSLHSGVPSRFSGSGSGTEFTLTISSLQPEDFATYYCLQHNSYPMYTFGQGTKLEIK
- effect on T47D#11 tumor growth [2]: potently inhibited tumor growth
